Data on three molecules can be found in patent publication US8586530B2, “Modulation of inhibition of ferrochelatase by N-methyl protoporphyrin” (University of South Florida, priority 2006, dated 2013).

A short description of data set [1]: Steady-state kinetics of ferrochelatase and P255 variants. The data set is classed as biochemical, murine. To be noted: for Km: protoporphyrin, read-out: Km^PPIX. The source says: One possible explanation for these findings is that the mechanism of interaction between the enzyme and the protoporphyrin substrate differs from that for inhibitor binding. It is conceivable that the active site of ferrochelatase is optimized for interaction with the protoporphyrin substrate and retains a certain degree of plasticity towards this end. Possibly, this facilitates the induction of porphyrin deformation in the protein matrix, and in so doing, ensures the catalytic reaction to proceed. In contrast, the constraints of the active site towards NMPP are presumably more stringent than towards the protoporphyrin substrate and any alterations of the active site affect the selectivity towards NMPP. Another possible explanation, and not necessarily mutually exclusive from the former, is that mutations introduced in the active site (e.g., at the P255 position) cause an alteration of the regiospecificity of ferrochelatase, such that the mutated active site can accommodate either a regioisomer or a combination of regioisomers of NMPP different from those of the wild-type active site. It is worth noting that 1) the commercially available NMPP used in this study consists of a racemic mixture of the eight potential isomers and 2) only one NMPP isomer was identified in the crystal structure of the B. subtillis ferrochelatase.
Protein Purification. Wild-type, murine ferrochelatase and variants were over-expressed, under the control of the E. coli alkaline phosphatase promoter phoA, in BL21(DE3) cells. The purification of the recombinant proteins bearing a N-terminal penta-histidine tag, assessment of the purity by sodium dodecyl sulfate-polyacrylamide gel electrophoresis and determination of protein concentration and enzymatic activity were as described previously (Shi and Ferreira 2004).

A further data set concerns E. coli Δvis cells. The data set can be described thus: Genetic selection in E. coli: growth of Δvis transformants on NMPP-containing plates. The data set is classed as cell-based, Escherichia coli. Particulars: medium containing more than 20 μM NMPP. As for the experimental part: To isolate Escherichia coli Δvis transformants harboring loop variants more tolerant to NMPP than wild-type ferrochelatase, 33 variants isolated from a library of 214 functional, ferrochelatase clones were plated on LB-ampicilin medium containing 0.2 μM, 2 μM or 20 μM NMPP. E. coli Δvis cells can only grow when hemin is added to the medium or when the cells are transformed with an active ferrochelatase expression plasmid. Transformants harboring a subset of the functional loop variants including K250N, V251L, P255R, P255G, K250M/V251L/W256Y and Q248P/S249G/250P/G252W were grown onto LB-ampicilin plates with increasing concentrations of NMPP. […] Based on this observation, the P255 variants were selected for further characterization.
Genetic Selection in E. coli. E. coli Δvis cells harboring plasmids encoding active, ferrochelatase variants isolated from a random sequence library of the loop motif were grown 16-18 h at 37° C. in LB agar medium containing 50 μg/mL of ampicillin and varying concentrations of NMPP. For the preparation of the NMPP-containing LB-ampicilin agar plates, a 2 mM stock solution of NMPP was made by dissolving NMPP in 20 mM NH4OH containing 2% Tween-20. The solution was filter-sterilized and kept at 4° C. The stock solution was diluted 100-, 1000- and 10000-fold to prepare LB-ampicilin plates containing 20 μM, 2 μM and 0.2 μM NMPP. Δvis cells transformed with wild-type ferrochelatase and functional variants were grown in LB medium containing 50 μg/mL ampicilin and 0.4% (w/v) glucose at 37° C., overnight, with shaking at 220 RPM. Each of the overnight cultures was diluted 20-fold into fresh medium and grown at 37° C. for ˜1 hr until OD600 reached ˜0.4-0.5. Subsequently, these cultures were diluted with LB medium by 10^6 and 100 μl aliquots of the diluted stock were spread on LB-ampicilin agar plates and LB-ampicilin agar plates containing NMPP at 0.2 μM, 2 μM and 20 μM, respectively. The plates were incubated at 37° C. for 16 hr, and the colonies on each plate were counted. […]

B1: P255R: murine ferrochelatase variant in which P255 was replaced with arginine (protein, UniProt P22315 54-422, looked up, variant P255R)
Ferrochelatase, mitochondrial: TTKPQAQPERRKPKTGILMLNMGGPETLGEVQDFLQRLFLDRDLMTLPIQNKLAPFIAKRRTPKIQEQYRRIGGGSPIKMWTSKQGEGMVKLLDELSPATAPHKYYIGFRYVHPLTEEAIEEMERDGLERAIAFTQYPQYSCSTTGSSLNAIYRYYNEVGQKPTMKWSTIDRWPTHPLLIQCFADHILKELNHFPEEKRSEVVILFSAHSLPMSVVNRGDPYPQEVGATVHKVMEKLGYPNPYRLVWQSKVGPVRWLGPQTDEAIKGLCERGRKNILLVPIAFTSDHIETLYELDIEYSQVLAQKCGAENIRRAESLNGNPLFSKALADLVHSHIQSNKLCSTQLSLNCPLCVNPVCRKTKSFFTSQQL
For orientation: kcat means the number of substrate molecules converted per active site and unit of time at saturation. In general, Km refers to the substrate concentration at which the rate is half of its maximum. B1: in data set [1], the catalytic constant (kcat) came to 0.13 ± 0.013 s⁻¹ and the Km was 2.65 ± 0.44 µM. Besides, the “colony formation of Δvis cells expressing the enzyme” value with E. coli Δvis cells is “could form colonies”.

B2: wild-type ferrochelatase: recombinant wild-type, murine ferrochelatase with N-terminal penta-histidine tag (protein, UniProt P22315 54-422, looked up)
Ferrochelatase, mitochondrial: TTKPQAQPERRKPKTGILMLNMGGPETLGEVQDFLQRLFLDRDLMTLPIQNKLAPFIAKRRTPKIQEQYRRIGGGSPIKMWTSKQGEGMVKLLDELSPATAPHKYYIGFRYVHPLTEEAIEEMERDGLERAIAFTQYPQYSCSTTGSSLNAIYRYYNEVGQKPTMKWSTIDRWPTHPLLIQCFADHILKELNHFPEEKRSEVVILFSAHSLPMSVVNRGDPYPQEVGATVHKVMEKLGYPNPYRLVWQSKVGPVPWLGPQTDEAIKGLCERGRKNILLVPIAFTSDHIETLYELDIEYSQVLAQKCGAENIRRAESLNGNPLFSKALADLVHSHIQSNKLCSTQLSLNCPLCVNPVCRKTKSFFTSQQL
Consider B2, for which, in data set [1], the turnover number (kcat) is 0.0683 ± 0.005 s⁻¹ and the Michaelis-Menten constant (Km) stood at 1.4 ± 0.2 µM. For the same molecule, in the data set with E. coli Δvis cells, the “colony formation of Δvis cells expressing the enzyme” value was “could not”.

B3: P255G: murine ferrochelatase variant in which P255 was replaced with glycine (protein, UniProt P22315 54-422, looked up, variant P255G)
Ferrochelatase, mitochondrial: TTKPQAQPERRKPKTGILMLNMGGPETLGEVQDFLQRLFLDRDLMTLPIQNKLAPFIAKRRTPKIQEQYRRIGGGSPIKMWTSKQGEGMVKLLDELSPATAPHKYYIGFRYVHPLTEEAIEEMERDGLERAIAFTQYPQYSCSTTGSSLNAIYRYYNEVGQKPTMKWSTIDRWPTHPLLIQCFADHILKELNHFPEEKRSEVVILFSAHSLPMSVVNRGDPYPQEVGATVHKVMEKLGYPNPYRLVWQSKVGPVGWLGPQTDEAIKGLCERGRKNILLVPIAFTSDHIETLYELDIEYSQVLAQKCGAENIRRAESLNGNPLFSKALADLVHSHIQSNKLCSTQLSLNCPLCVNPVCRKTKSFFTSQQL
Consider B3, for which, in data set [1], the kcat was determined as 0.0983 ± 0.0233 s⁻¹ and the Michaelis-Menten constant (Km) was 2.51 ± 0.8 µM. For the same molecule, the “colony formation of Δvis cells expressing the enzyme” value in the data set on E. coli Δvis cells was “could form colonies”.
